Measured values published in article PMC9463131, “SLITRK1-mediated noradrenergic projection suppression in the neonatal prefrontal cortex” (Communications Biology, 2022).
Where “and” joins values, the source holds several entries; their conditions need not be identical. Identical values can stand only once.

Target: human Neurofascin ECD-His6 (human, UniProt O94856 25-1217, Mammalian-expressed glycoprotein is likely. C-terminal His6 tag omitted. The limits are not printed. The paper names catalogue 8208-NF-050 as Neurofascin 155, so the chain runs from after the signal p)
Experiment: quartz crystal microbalance; SLITRK1 ECD-Fc (about 200 fmol) immobilised on the 27 MHz gold resonator through anti-human IgG Fc-HRP; ECD-His6 proteins added in solution; 50 mM Tris-HCl pH 7.6, 15 mM NaCl, 140 mM KCl, 0.5 mM MgCl2, 2 mM CaCl2; 25 ± 1 °C; kon and koff from 1/τ against concentration, KD = koff/kon; each sheet row is one experiment
Settings: both partners purified

| Binder | Kd | koff | kon |
| --- | --- | --- | --- |
| SLITRK1-S330A-Fc (Fc fusion, human, UniProt Q96PX8 18-616, looked up, signal peptide in the construct; human SLITRK1 extracellular domain, amino acid number 1-616 in NP_443142, with the patient-derived mutation S330A; S330A was found in patients (SCZ/BPD) and controls, so it occurs in nature; also called SLITRK1 ECD-Fc S330A) NVTGDVCKEKICSCNEIEGDLHVDCEKKGFTSLQRFTAPTSQFYHLFLHGNSLTRLFPNEFANFYNAVSLHMENNGLHEIVPGAFLGLQLVKRLHINNNKIKSFRKQTFLGLDDLEYLQADFNLLRDIDPGAFQDLNKLEVLILNDNLISTLPANVFQYVPITHLDLRGNRLKTLPYEEVLEQIPGIAEILLEDNPWDCTCDLLSLKEWLENIPKNALIGRVVCEAPTRLQGKDLNETTEQDLCPLKNRVDSSLPAPPAQEETFAPGPLPTPFKTNGQEDHATPGSAPNGGTKIPGNWQIKIRPTAAIATGSARNKPLANSLPCPGGCSCDHIPGSGLKMNCNNRNVSSLADLKPKLSNVQELFLRDNKIHSIRKSHFVDYKNLILLDLGNNNIATVENNTFKNLLDLRWLYMDSNYLDTLSREKFAGLQNLEYLNVEYNAIQLILPGTFNAMPKLRILILNNNLLRSLPVDVFAGVSLSKLSLHNNYFMYLPVAGVLDQLTSIIQIDLHGNPWECSCTIVPFKQWAERLGSEVLMSDLKCETPVNFFRKDFMLLSNDEICPQLYARISPTLTSHSKNSTGLAETGTHSNSYLDTSRVS | 44.8 nM and 64.2 nM and 68.8 nM | 0.00635 s⁻¹ and 0.00732 s⁻¹ and 0.00627 s⁻¹ | 142000 M⁻¹ s⁻¹ and 91200 M⁻¹ s⁻¹ and 114000 M⁻¹ s⁻¹ |
| SLITRK1-A444S-Fc (Fc fusion, human, UniProt Q96PX8 18-616, looked up, signal peptide in the construct; human SLITRK1 extracellular domain, amino acid number 1-616 in NP_443142, with the patient-derived mutation A444S; A444S was found in patients with BPD, so it occurs in nature; also called SLITRK1 ECD-Fc A444S) NVTGDVCKEKICSCNEIEGDLHVDCEKKGFTSLQRFTAPTSQFYHLFLHGNSLTRLFPNEFANFYNAVSLHMENNGLHEIVPGAFLGLQLVKRLHINNNKIKSFRKQTFLGLDDLEYLQADFNLLRDIDPGAFQDLNKLEVLILNDNLISTLPANVFQYVPITHLDLRGNRLKTLPYEEVLEQIPGIAEILLEDNPWDCTCDLLSLKEWLENIPKNALIGRVVCEAPTRLQGKDLNETTEQDLCPLKNRVDSSLPAPPAQEETFAPGPLPTPFKTNGQEDHATPGSAPNGGTKIPGNWQIKIRPTAAIATGSSRNKPLANSLPCPGGCSCDHIPGSGLKMNCNNRNVSSLADLKPKLSNVQELFLRDNKIHSIRKSHFVDYKNLILLDLGNNNIATVENNTFKNLLDLRWLYMDSNYLDTLSREKFSGLQNLEYLNVEYNAIQLILPGTFNAMPKLRILILNNNLLRSLPVDVFAGVSLSKLSLHNNYFMYLPVAGVLDQLTSIIQIDLHGNPWECSCTIVPFKQWAERLGSEVLMSDLKCETPVNFFRKDFMLLSNDEICPQLYARISPTLTSHSKNSTGLAETGTHSNSYLDTSRVS | 13.3 nM and 16.3 nM and 13.1 nM | 0.00529 s⁻¹ and 0.00613 s⁻¹ and 0.00588 s⁻¹ | 398000 M⁻¹ s⁻¹ and 376000 M⁻¹ s⁻¹ and 451000 M⁻¹ s⁻¹ |
